± gives the uncertainty stated by the source.
Assay: self-splicing fitness, log relative to wild type (ln ratio); higher = more splicing; Tetrahymena group I intron in knt gene, E. coli kanamycin selection, DiMSum; sequences stand for … in CUCUCU…GGAGGGAAAAGUUAUCAGGCAUGCACCUGGUAGCUAGUCUUUAAACCAAUAGAUUGCAUCGGUUUAAAAGGCAAGACCGUCAAAUUGCGGGAAAGGGGUCAACAGCCGUUCAGUACCAAGUCUCAGGGGAAACUUUGAGAUGGCCUUGCAAAGGGUAUGGUAAUAAGCUGACGGACAUGGUCCUAACCACGCAGCCAAGUCCUAAGUCAACAGAUCUUCUGUUGAUAUGGAUGCAGUUCACAGACUAAAUGUCGGUCGGGGAAGAUGUAUUCUUCUCAUAAGAUAUAGUCGGACCUCUCCUUAAUGGGAGCUAGCGGAUGAAGUGAUGCAACACUGGAGCCGCUGGGAACUAAUUUGUAUGCGAAAGUAUAUUGAUUAGUUUUGGAGUACUCGUGGUCG
Outline: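 Fitness was computed with DiMSum as the error-weighted combination of replicate fold changes, kanamycin versus none, each normalised to wild type. The library randomised all eight intron nucleotides of the P1ex region, with the intron placed in the knt kanamycin-resistance gene on pET-22b(+) in E. coli BL21(DE3). Six replicate transformations were grown overnight at 37°C or 30°C on LB agar with or without 25 μg/mL kanamycin, plus 100 μg/mL carbenicillin, 50 μM IPTG and 0.2% rhamnose. Pooled colonies were amplicon-sequenced on an Illumina HiSeq 2500.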

ACCAAGCAAUAUUACGGCUG
self-splicing fitness (ln) (30 °C): -1.55 ± 0.068 | self-splicing fitness (ln) (37 °C): -0.288 ± 0.081

CUGCAGCAAUAUUACGACUG
self-splicing fitness (ln) (30 °C): -2.56 ± 0.16 | self-splicing fitness (ln) (37 °C): -1.74 ± 0.2

UGGCAGCAAUAUUACGAGAC
self-splicing fitness (ln) (30 °C): -3.74 ± 0.48 | self-splicing fitness (ln) (37 °C): -1.09 ± 0.45

CCGCAGCAAUAUUACGGCUG
self-splicing fitness (ln) (30 °C): -3.8 ± 0.29 | self-splicing fitness (ln) (37 °C): -2.45 ± 0.27

GUCGAGCAAUAUUACGAAAU
self-splicing fitness (ln) (37 °C): -1.29 ± 0.49

AGGUAGCAAUAUUACGACUC
self-splicing fitness (ln) (30 °C): -0.66 ± 0.018 | self-splicing fitness (ln) (37 °C): -0.19 ± 0.037

CGUAAGCAAUAUUACGCUUA
self-splicing fitness (ln) (30 °C): -3.67 ± 0.37 | self-splicing fitness (ln) (37 °C): -2.91 ± 0.23

AUCCAGCAAUAUUACGAUAU
self-splicing fitness (ln) (30 °C): -0.123 ± 0.075 | self-splicing fitness (ln) (37 °C): -0.114 ± 0.071

CGUCAGCAAUAUUACGAGCU
self-splicing fitness (ln) (30 °C): -3.17 ± 0.13 | self-splicing fitness (ln) (37 °C): -1.45 ± 0.13

GACGAGCAAUAUUACGUCAA
self-splicing fitness (ln) (30 °C): -3.11 ± 0.27

CAAUAGCAAUAUUACGUUAC
self-splicing fitness (ln) (37 °C): -3.23 ± 0.39

UCGCAGCAAUAUUACGCACC
self-splicing fitness (ln) (30 °C): -1.68 ± 0.27 | self-splicing fitness (ln) (37 °C): -1.6 ± 0.38

GUAAAGCAAUAUUACGAUCG
self-splicing fitness (ln) (30 °C): -0.724 ± 0.075 | self-splicing fitness (ln) (37 °C): 0.373 ± 0.11

UGCGAGCAAUAUUACGCCUA
self-splicing fitness (ln) (30 °C): -2.48 ± 0.19 | self-splicing fitness (ln) (37 °C): -0.762 ± 0.16

UAUGAGCAAUAUUACGGGGU
self-splicing fitness (ln) (30 °C): -2.98 ± 0.21 | self-splicing fitness (ln) (37 °C): -2.2 ± 0.22

UUUCAGCAAUAUUACGGGAG
self-splicing fitness (ln) (30 °C): -0.794 ± 0.07 | self-splicing fitness (ln) (37 °C): -0.0774 ± 0.1

AAGUAGCAAUAUUACGGUAU
self-splicing fitness (ln) (30 °C): -2.25 ± 0.097 | self-splicing fitness (ln) (37 °C): -1.88 ± 0.092

CCUGAGCAAUAUUACGUUGC
self-splicing fitness (ln) (30 °C): -2.07 ± 0.31 | self-splicing fitness (ln) (37 °C): -2.27 ± 0.43

AGGUAGCAAUAUUACGGCCU
self-splicing fitness (ln) (30 °C): -3.7 ± 0.04 | self-splicing fitness (ln) (37 °C): -2.6 ± 0.053

AUAGAGCAAUAUUACGCUCC
self-splicing fitness (ln) (30 °C): -0.896 ± 0.37 | self-splicing fitness (ln) (37 °C): -1.91 ± 0.41

UGGAAGCAAUAUUACGCCCU
self-splicing fitness (ln) (30 °C): -0.2 ± 0.14 | self-splicing fitness (ln) (37 °C): -0.0341 ± 0.18

GCGCAGCAAUAUUACGACUG
self-splicing fitness (ln) (30 °C): -1.91 ± 0.12 | self-splicing fitness (ln) (37 °C): -1.98 ± 0.23

UCCAAGCAAUAUUACGAUCU
self-splicing fitness (ln) (30 °C): -3.08 ± 0.26 | self-splicing fitness (ln) (37 °C): -2.56 ± 0.22

UCGGAGCAAUAUUACGGGAC
self-splicing fitness (ln) (37 °C): -1.99 ± 0.29

GCAGAGCAAUAUUACGUUGA
self-splicing fitness (ln) (30 °C): -2.53 ± 0.2 | self-splicing fitness (ln) (37 °C): -2.15 ± 0.25

AUCGAGCAAUAUUACGCAGG
self-splicing fitness (ln) (30 °C): -3.53 ± 0.28 | self-splicing fitness (ln) (37 °C): -2.77 ± 0.22

CGAGAGCAAUAUUACGCGAA
self-splicing fitness (ln) (30 °C): -2.39 ± 0.27 | self-splicing fitness (ln) (37 °C): -1.89 ± 0.37

UUUGAGCAAUAUUACGUGUU
self-splicing fitness (ln) (30 °C): -2.61 ± 0.32 | self-splicing fitness (ln) (37 °C): -3.3 ± 0.33

CGCCAGCAAUAUUACGUAAC
self-splicing fitness (ln) (30 °C): -3.91 ± 0.24 | self-splicing fitness (ln) (37 °C): -2.96 ± 0.28

AUAUAGCAAUAUUACGGUAA
self-splicing fitness (ln) (30 °C): -1.94 ± 0.15 | self-splicing fitness (ln) (37 °C): -0.869 ± 0.13

UCACAGCAAUAUUACGAGUG
self-splicing fitness (ln) (30 °C): -2.04 ± 0.09 | self-splicing fitness (ln) (37 °C): -0.607 ± 0.09

ACGGAGCAAUAUUACGAACU
self-splicing fitness (ln) (30 °C): -0.565 ± 0.11 | self-splicing fitness (ln) (37 °C): -0.0683 ± 0.16

CCCGAGCAAUAUUACGAAAU
self-splicing fitness (ln) (30 °C): -3.65 ± 0.33 | self-splicing fitness (ln) (37 °C): -0.929 ± 0.16

GGAAAGCAAUAUUACGCAAC
self-splicing fitness (ln) (30 °C): -3.25 ± 0.24 | self-splicing fitness (ln) (37 °C): -1.02 ± 0.23

UAGGAGCAAUAUUACGCCUG
self-splicing fitness (ln) (30 °C): -3.57 ± 0.47 | self-splicing fitness (ln) (37 °C): -1.23 ± 0.33

GAUCAGCAAUAUUACGGAAA
self-splicing fitness (ln) (30 °C): -1.01 ± 0.16 | self-splicing fitness (ln) (37 °C): -0.212 ± 0.17

CCAGAGCAAUAUUACGGAUU
self-splicing fitness (ln) (30 °C): -3.05 ± 0.15 | self-splicing fitness (ln) (37 °C): -2.38 ± 0.16

GAAAAGCAAUAUUACGAGAG
self-splicing fitness (ln) (30 °C): -3.43 ± 0.28 | self-splicing fitness (ln) (37 °C): -2.48 ± 0.21

AACAAGCAAUAUUACGACUC
self-splicing fitness (ln) (30 °C): -0.216 ± 0.072 | self-splicing fitness (ln) (37 °C): 0.125 ± 0.097
